Two substances from publication PMC6265470, “Structural, functional and biological insights into the role of Mycobacterium tuberculosis VapBC11 toxin–antitoxin system: targeting a tRNase to tackle mycobacterial adaptation” (Nucleic Acids Research, 2018) can be followed below.

The target in data set [1] is VapC11 as co-expressed and co-purified with VapB11 in the VapBC11 complex (Mycobacterium tuberculosis) (UniProt P9WFA4). As to the kind of experiment: […] (pH 8.0), 150 mM NaCl, […].
The test system of data set [2] is VapC11 D5A (Mycobacterium tuberculosis). As to the kind of experiment: BLI. The settings on record: BLI: 20 mM HEPES pH 7.5, 150 mM NaCl, 25 C.

pKd: −log10 of the molar value.

In general, pKd refers to the Kd on a negative log10 scale, so that one unit is a factor of ten.

With “VapB11 (residues 6-72) as co-expressed and co-purified with VapC11 in the VapBC11 complex (from UniProt P9WLU2 6-72) (domain or fragment)”, in data set [1], the percent of the population as heterooctamer came to 80%, the stoichiometry N (VapB11 per VapC11 (2:4)) is 0.5 and the stoichiometry N (VapB11 per VapC11 (4:4)) was found to be 1.

The substance tRNA-LeuCAG (leuT) had a pKd in data set [2] of 9.30.
